The target of experiment [1] is T1, GRIP-1 (Homo sapiens, UniProt Q15596). Briefly: thermal shift.
The target of experiment [2] is T1, GRIP-1. Briefly: thermal shift, van't Hoff to 25 °C.

T1 sequence (Q15596 2-1464): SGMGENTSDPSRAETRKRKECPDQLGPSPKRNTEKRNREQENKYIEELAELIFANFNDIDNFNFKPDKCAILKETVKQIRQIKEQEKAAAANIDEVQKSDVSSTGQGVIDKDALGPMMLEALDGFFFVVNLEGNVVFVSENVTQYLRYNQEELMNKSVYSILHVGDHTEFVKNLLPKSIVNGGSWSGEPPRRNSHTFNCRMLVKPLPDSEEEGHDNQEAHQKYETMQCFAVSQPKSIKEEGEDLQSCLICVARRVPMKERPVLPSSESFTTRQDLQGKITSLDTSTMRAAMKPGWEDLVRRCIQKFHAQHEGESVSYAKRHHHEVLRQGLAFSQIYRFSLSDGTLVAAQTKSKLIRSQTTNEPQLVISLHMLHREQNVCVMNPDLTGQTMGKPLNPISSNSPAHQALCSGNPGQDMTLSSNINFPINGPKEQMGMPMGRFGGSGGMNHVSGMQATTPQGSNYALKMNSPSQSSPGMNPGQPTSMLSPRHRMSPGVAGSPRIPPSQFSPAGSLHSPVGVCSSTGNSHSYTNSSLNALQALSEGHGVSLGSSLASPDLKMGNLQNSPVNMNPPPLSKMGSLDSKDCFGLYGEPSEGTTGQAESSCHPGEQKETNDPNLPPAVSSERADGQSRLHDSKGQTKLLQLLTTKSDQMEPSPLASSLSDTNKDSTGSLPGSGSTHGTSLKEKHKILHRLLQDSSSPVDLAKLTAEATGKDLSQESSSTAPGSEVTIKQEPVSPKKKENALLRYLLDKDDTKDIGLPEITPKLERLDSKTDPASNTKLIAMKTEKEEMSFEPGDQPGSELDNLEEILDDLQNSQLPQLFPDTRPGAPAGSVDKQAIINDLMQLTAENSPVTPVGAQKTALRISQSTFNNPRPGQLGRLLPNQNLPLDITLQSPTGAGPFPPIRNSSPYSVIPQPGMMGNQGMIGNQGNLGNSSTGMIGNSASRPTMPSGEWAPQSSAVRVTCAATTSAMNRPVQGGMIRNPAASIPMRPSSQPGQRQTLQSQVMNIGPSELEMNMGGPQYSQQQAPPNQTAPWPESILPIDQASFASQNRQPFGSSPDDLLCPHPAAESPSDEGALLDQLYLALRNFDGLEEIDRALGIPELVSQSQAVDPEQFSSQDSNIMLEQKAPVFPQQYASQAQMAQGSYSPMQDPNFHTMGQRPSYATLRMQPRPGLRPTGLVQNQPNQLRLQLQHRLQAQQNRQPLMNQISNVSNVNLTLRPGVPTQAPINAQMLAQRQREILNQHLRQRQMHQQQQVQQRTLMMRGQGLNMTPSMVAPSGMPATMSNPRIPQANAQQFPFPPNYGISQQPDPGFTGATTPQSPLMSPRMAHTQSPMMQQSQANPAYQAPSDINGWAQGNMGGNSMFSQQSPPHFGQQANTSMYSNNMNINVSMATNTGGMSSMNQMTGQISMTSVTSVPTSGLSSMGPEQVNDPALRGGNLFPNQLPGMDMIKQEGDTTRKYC

B1: RXRα LBD (protein)
chain: NEDMPVERILEAELAVEPKTETYVEANMGLNPSSPNDPVTNICQAADKQLFTLVEWAKRIPHFSELPLDDQVILLRAGWNELLIASFSHRSIAVKDGILLATGLHVHRNSAHSAGVGAIFDRVLTELVSKMRDMQMDKTELGCLRAIVLFNPDSKGLSNPAEVEALREKVYASLEAYCKHKYPEQPGRFAKLLLRLPALRSIGLKCLEHLFFFKLIGDTPIDTFLMEMLEAP
modifications: UAB111
As to B1, the Kd is 24 µM with GRIP-1 [1] and 1.8 µM with GRIP-1 [2].

B2: RXRα LBD (protein)
chain: NEDMPVERILEAELAVEPKTETYVEANMGLNPSSPNDPVTNICQAADKQLFTLVEWAKRIPHFSELPLDDQVILLRAGWNELLIASFSHRSIAVKDGILLATGLHVHRNSAHSAGVGAIFDRVLTELVSKMRDMQMDKTELGCLRAIVLFNPDSKGLSNPAEVEALREKVYASLEAYCKHKYPEQPGRFAKLLLRLPALRSIGLKCLEHLFFFKLIGDTPIDTFLMEMLEAP
modifications: UAB30
B2: the Kd worked out at 22 µM with GRIP-1 [1] and 0.74 µM with GRIP-1 [2].

B3: RXRα LBD (protein)
chain: NEDMPVERILEAELAVEPKTETYVEANMGLNPSSPNDPVTNICQAADKQLFTLVEWAKRIPHFSELPLDDQVILLRAGWNELLIASFSHRSIAVKDGILLATGLHVHRNSAHSAGVGAIFDRVLTELVSKMRDMQMDKTELGCLRAIVLFNPDSKGLSNPAEVEALREKVYASLEAYCKHKYPEQPGRFAKLLLRLPALRSIGLKCLEHLFFFKLIGDTPIDTFLMEMLEAP
modifications: UAB110
On to B3, for which the Kd was determined as 26 µM with GRIP-1 [1] and 1.5 µM with GRIP-1 [2].
